{"source": "the DeepSol protein solubility set"}
{"assay": "soluble on expression in E. coli; label from the status in PepcDB or PDB records"}
{"sequence": "MSLKKLVIFDLDGTLLNTIADLAHSTNYALNKLGYPTHEIEKYNFMVGNGIDKLFERALPEGEKSKENVLRVRKEFVPYYDIHNADDSRPYPGIPELLSYLQDAGIQITVASNKYQAATQKLIDHYFPEIHFTAVFGQREGIKVKPDPTVVFDILEVAKVTKEEVLYVGDSGVDMQTAANAGVTVCGVTWGFRPRAELEEFSPQYIVDTAEEIKRLILEGHHHHHH", "soluble on expression in E. coli": "soluble"}
{"sequence": "MSLKKQRIVVKIGSSSLTNSKGSIDEAKIREHVQAISVLKKAGHEMILITSGAVAAGFSSLGYPSRPVTIKGKQAAAAVGQTLLMQQYMNQFKQYSLTPGQILLTRNDFSKRERYRNAYATIMELLERGVIPIINENDSTSVEELTFGDNDMLSALVSGLIHADQLMILTDINGLYDANPNENPEAKRFDYLPEITPELLGYAGSAGSKVGTGGMKSKLLATQTALSLGVKVFIGTGSGEQKLADILDGRGDGTYIGDKELSSVNNTRQWIQFHSPISGEIIIDAGAEEAMIHNGSSLLPAGVVGVNGSFPKGAVVEVRGPGGVIGKGQTHYSSEEIMEAKGKRSDELDFEKTFEVIHEGHHHHHH", "soluble on expression in E. coli": "soluble"}
{"sequence": "MSLKLHKGIKEYECKECHRRFAQKVNMLKHCKRHTGIKDFMCELCGKTFSERNTMETHKLIHTVGKQWTCSVCDKKYVTEYMLQKHVQLTHDKVEAQSCQLCGTKVSTRASMSRHMRRKHPEVLAVRIDDLDHLPETTTIDASSIGIVQPELTLEQEDLAEGKHGKAAKRSHKRKQKPEEEAGAPVPEDATFSEYSEKETEFTGSVGDETNSAVQSIQQVVVTLGDPNVTTPSSSVGLTNITVTPITTAAATQFTNLQPVAVGHLTTPERQLQLDNSILTVTFDTVSGSAMLHNRQNDVQIHPQPEASNPQSVAHFINLTTLVNSITPLGSQLSDQHPLTWRAVPQTDVLPPSQPQAPPQQAAQPQVQAEQQQQQMYSYEGHHHHHH", "soluble on expression in E. coli": "not soluble"}
{"sequence": "MSLKLTVVGLGYIGLPTSIMFAKHGVDVLGVDINQQTIDKLQSGQISIEEPGLQEVYEEVLSSGKLKVSTTPEASDVFIIAVPTPNNDDQYRSCDISLVMRALDSILPFLEKGNTIIVESTIAPKTMDDFVKPVIENLGFTIGEDICLVHCPERVLPGKILEELVHNNRIIGGVTKACIEAGKYVYRTFVQGEMIETDARTAEMSKLMENTYRDVNIALANELTKICNNLNINVLDVIEMANKHPRVNIHQPGPGVGGHCLAVDPYFIIAKDPENAKLIQTGREINNSMPAYVVDTTKQIIKALSGNKVTVFGLTYKGDVDDIRESPAFDIYELLNQEPDIEVCAYDPHVELDFVEHDMSHAVKDASLVLILSDHSEFKNLSDSHFDKMKHKVIFDTKNVVKSSFEDVSYYNYGNIFNFIDKEGHHHHHH", "soluble on expression in E. coli": "soluble"}
{"sequence": "MSLKLVEILVLGQVLRLNVPIEQEELLRQAARNLDILVSEMKEKTGLIQLDRVLSIVALNLSFELSQEKNKTAKIEEVLRTGIQQLDHSLENIRVTKEPH", "soluble on expression in E. coli": "soluble"}
{"sequence": "MSLKNEIQFEVFGDYALFTDPLTKIGGEKLSYSVPTYQALKGIVESIYWKPTIIFTIDKLRVMKPIQMESKGVRPIDYGGGNTLAHYTYLKDVHYQVKAHFDFNFNRPDLAFDRNEGKHYSILQRSLKAGGRRDIFLGTRECQGYVAPCEFGSGSGYYDGQGEYRLGTMVHGFNYPDETGQNQLDVRLWPAVMNDGYIKFPKPEDCTMIRPIKEMEPKEFKRDDIQSVEQLSYEVGGEEGHHHHHH", "soluble on expression in E. coli": "soluble"}
{"sequence": "MSLKNIVFDIGNVLLKFTPVEFLKSKYKDDKLVEALYENVFKSNEWVELDRGTITEEEATCRFCKRDPHNAKYIREVMETWNEMHVPVEGTSELMKELREKGYKIYLLSNYHLKAFKLISDKYDFIRDVDGGIISSKVKLLKPELEIYKALTNSCGIKPEESIFIDDREENVEAAIKLGFNGIVFKDAYELKGKFDELGIAIEGHHHHHH", "soluble on expression in E. coli": "soluble"}
{"sequence": "MSLKNLGSPVFFFQERPGKDGKPFKMVKFRSMRDALDSDGIPLPDGERLTPFGKKLRAASLDELPELWNILKGEMSLVGPRPLLMQYLPLYDNFQNRRHEMKPGITGWAQVNGRNALSWDEKFACDVWYIDHFSLCLDIKILLLTVKKVLIKEGISAQGEATMPPFTGKRKLAVVGAGGHGKVVADLAAALGRYREIVFLDDRAQGSVNGFSVIGTTLLLENSLSPEQYDVAVAVGNNRIRRQIAEKAAALGFALPVLVHPDATVSPSATVGQGSVVMAKAVVQAGSVLKDGVIVNTAATVDHDCLLNAFVHISPGAHLSGNTHIGEESWIGTGACSRQQIRIGSRATIGAGAVVVRDVSDGMTVAGNPAKPLPRKNPETSTAEGHHHHHH", "soluble on expression in E. coli": "not soluble"}
{"sequence": "MSLKNNEVAFYAMGGLGEIGKNMYCVQFQDEIIVIDCGVLFPEDELLGVDYVIQNYDYLIENKDKIKGIFITHGHEDHIGGLPFFLQKVNAPIYAGPFAMSLIKGKLEEKHLLRNAELHEINEFDEVHFKKLWVSFFRTTHSIPDTLGVAVHTPQGTIVQTGDFKFDLTPVGNLPGPNLQQMAKLGDDGVLLLTSDSTNAERPEFTKSERWVDIHIRRIFERIKGRIIFASFASNVYRLREASDAAIAQGRKIAVFGRSMENAITAGQELGYLNIPKDSLIDQNEINNYPPEKVLIMCTGSQGEPMAALSRIANGTHRQITIQPEDTVVFSSNPIPGNTTSVNALINKLEESGANVIHGYVNNIHTSGHGGQVDEEFMLRLMKPKFFAPVHGEYRMQKIHTKLAEMTGVPKENSFVLANGDVLALTKDSCRVADHIDSVSDVYIDGRDAGDTVGNPEIRERRLLSEEGVVTAIAVVDLKDYQIVAGPDIVSRGFVYMHESQELIKAANHEVFWAILNTFKNHKHIDQRVLNRTIISRLQKLLYDRTGRRPVIIPMVTILNGEGHHHHHH", "soluble on expression in E. coli": "soluble"}
{"sequence": "MSLKNNSEVFNVLHFSDIHIQLRYNVGAEANCTNLPCGAPDSYNKQLLPSSYNFSSYYQHFSPNVAKMEFSFYPDAHYDENSQYIKGDYYDFPLYRGWNFKNAPATSFGGYLTDSPAVLMNSSLISMAKMHKEKNFEFAIFTGDVVDHLLLSCTPEYTKEEEVKSFKAMKFFFNNLTVLPALGNHETGEYGQLSPIAYDFNGSYSWNQDEMVDLWINNEWFPAKDRYDLKSHYAGFSYVTNRGLKVIGLNSNAYYQKNLWSYIDLSTNPDLFGQWEFLVNELIESEEKGQRVWIMAHIPTTDYDTLPLQSRIFGKIVERFSPYTIANIFFAHTHMDQTHILYSTNSSKEAEDIINMSWVMQSVTPLANYNPSWRYYEVENESFNIINSFNYMTKLNDTFVNGGEEPVWEFEYSARELYDPKKTWPERAPLNATFWHKYVFERLRNESDIEFNQQYSNIRYREGHHHHHH", "soluble on expression in E. coli": "not soluble"}
{"sequence": "MSLKNVLITGANSYIGLSFKNWLAKEPEKYKVDSISLRGDLWKEKDFSQYDVLLHAAGIAHIKETKENKELYFKVNRDVAYEAAKKAKDEGIKQFIFLSSMSVYGKENGIIDLDTLPKPTSNYGESKLQAEKLIEMLDDDSFKVVTIRPPMIYGKGCKGNYPKLAKLARKLPVFPDVENERSMIHIENLCEFMKLIIDNNDAGLFLPQNDDFVKTSEMVRLIGETNGKRIKLTKFFNPVLNLFIGKIGVVNKVFGNLKYKKEISNYKDNYIINNFAESIRRTEEGHHHHHH", "soluble on expression in E. coli": "soluble"}
{"sequence": "MSLKPEEIVEGLLSGNRRALARAITYVENEYPESKEIMRQIFAKTGRAHVVGLTGFPGVGKSTLVSKLTEEFRRRGKKVGIIAIDPGSPFTGGALLGDRLRLDGMDSRKQLWTDPGIFFRSMSSRGRAGGLAAKTGDVVRLLDAFGFDVILVETVGAGQSEVDIIEVADTSVVVMMPETGDEIQVNKAGILEIGDIYVVNKADLGGAEKVERWLRYMLSLDEESVQMLSQMTHADEARVQSGEFFERRKGWNPPVIKTVADRGEGIKELADAIEEHFDYMKKTGLIEKRRRERVKRELFEIVMNDVIKLVKEKTNYRDLLVKLLKGETDPYTAAEQIVEEVIHNAGKGEGHHHHHH", "soluble on expression in E. coli": "soluble"}
{"sequence": "MSLKPIFGRGPSLQLRLFFAVMLSASLMLADSRLGAFSHVRFLLNSLVAPIQYAADLPRVLFDDFYDSISSHQQLRENNQLLKREVLTLKSNLLLLEQYKEENQRLRKLLGSSFLRDEKKVVTEVMAVDTSPYRHQVVIDKGRVDGVYEGQPIINEKGIVGQVTFVAAHNSRVLLLIDPNTAIPVQNIRNDIRVIASGNGQTDQIQLEHIPTSTDIEVGDMLVTSGLGGVYPEGYPVAIVSQVDKDTRREFASIKADPVVEFDRLRYLLLIWPNEDRLQKVMQADPQVLLEEEANAQEGHHHHHH", "soluble on expression in E. coli": "soluble"}
{"sequence": "MSLKSGTMVEKLASAKTIAFDKTGTITQGQLSVDQVQPINAGITAAELVGLAASVEQESSHILARSIVAYARKQDVPLKNITDLAEVSGAGVKAFVDGAEIRVGKKNFVTQESQETEKIDKTTIHISRNGTYLGRITFTDTVRPEAKETMEKLHQLHLQRILMLTGDQESVAETIAAEVGITEVHGECLPQDKLTILKELPKENHPVIMVGDGVNDAPSLAAADVGIAMGAHGATAASETADVVILKDDLSKVSQAVEIAQDTMKIAKEGHHHHHH", "soluble on expression in E. coli": "soluble"}
{"sequence": "MSLKSHRYMEVSFTKYRINLKYSFGISRSSNNYYDVAFVFIKDKGIIGRGEAAPSKRYGESIDYIIKLLESGISLPKNSYDKESVWKHVKPQLGGIKSLEAAFNMAIWDWWGQKQKKPVYELLNIKVNNLPKTSFTIAIGNMNEIERKIEEAKPYSILKVKLGTPKNDKKIITEIRKLTDKLIRVDANEGWDLDMAIKMSKWLADRNVEFIEQPFPASKIDQTSILKKKSPLDIFADENSINSNDIPSLEGVFDGINIKLMKCGSIEEGYKMIKLAREFDLKIMLGCMVESSIEGHHHHHH", "soluble on expression in E. coli": "soluble"}
{"sequence": "MSLKSPPKKDEENVKINNMFKCGFYSFKGNRTYNEDRVIIIEDMNNFLKENIINNIKDMETPSYIYCAIYDGHNGDNAVNIVQKLLHIHMYYYFINGNGLENSLKYSFQEIDNYLCKNIINIKEENHSNYSSGTTACVSVIFKNMLYVANIGDSRCIISKNGRAIVLTVDHRASINKKEQDRILKSGGILDDEGYLGGCLGVCRGFGSFHKKTKEKLKGLICEPDLFHIKLTDDDEFLIICCDGIFDVITSQEAVNTVKNSLIQSRDAKTAAEALCQLAYKKKSLDNLSVLVVIFQNPDKEGHHHHHH", "soluble on expression in E. coli": "soluble"}
{"sequence": "MSLKSSEQMRALFPDHPEACDNTLLLTEMIGSYDEVFKYVDRMPQFDVPEGETQESWLRKKLQEGLDEKFGPNPPKEVLERLETELSVIEPLGFASYFLVVSDICNAARSMGVPVGPGRGSAAGSLVAYLTGIIAINPLEHGLLFERFLNPERVNPPDIDLDFDDRQRDKVIDYVTHKYGAEYTSQVNTFGKIKAKAAVKDANRILGYPFALGDKITKAMPPDVMGKGVPLDKIFDSSHERYGEGQEFRQLVADNPDVAKVVETAKGLEGLIRGTGVHACAFILSSTPLLDLVPMHKRDKDGMIIAGFAYPQLEEMGLMKMDFLGLRNLGIMDHCIKIIKANRGIDVDLKNIALDDKTTYEMLARGDTLGVFQLDGTAMRSLLRLMGPTCFDDIVAVLALYRPGPMGANAHISYAQRKNNREPIIPIHPELKEDLDEILAPTYHLIVYQEQIMSIARKLAGYTLGGADLLRRAMGKEGHHHHHH", "soluble on expression in E. coli": "soluble"}
{"sequence": "MSLKSWVKMNSWTSEDTKAVKMWFDLDKYREFENISINMLYHEIWARTYFFKPVIEEGMQKTVLKNYMQILDGDPFLIKEKHLNYMDSENKSYQPPYFFITTVDRIANISFACMRKALFIRANTEQYKIDSTIENEYISEIIPEQFPTTIMLEIDLAGGSDDEIAEALRVSLPQWRKVKGVKPAPLDAVRFGYGAIKKLISYRIIPMLDLLAWSERKKVLLSDDRLSRLLYTDEDDDKAIRQGYHIRDADRPFAMKTVETDFLRQFNFFINKNQHVKEMRVSDVMKLSDSEGHHHHHH", "soluble on expression in E. coli": "not soluble"}
